pKd: −log10 of the molar value.
Assays:
[1] = biological target: CLDN18.2 (antigen of the ka/kd/KD measurement, species and form not stated); assay: affinity measurement, method not described
[2] = biological target: CLDN18.2 (antigen of the ka/kd/KD measurement, species and form not stated); assay: affinity measurement, method not described (Table 2-2)

- pKd [1]: 8.38
- pKd [2]: 8.38
Substance: IMAB362 (antibody)

Source: patent CN116003603A
